Here are results for 20 substances from patent US11505576B2, “Polypeptides based on a scaffold” (AFFIBODY AB, priority 2018, dated 2022).

The target of one data set is T1, insulin (Homo sapiens, UniProt P01308).
T1 construct: purchased Roche 1376497
In words: Kinetic analysis using surface plasmon resonance (Biacore T200), immobilized insulin. It is filed as binding. The following applies: Table 7; MGSSHHHHHHGSS-[Y#####]-A. As to the method: Kinetic constants (ka and kd) and affinities (KD) were determined for His6-tagged Y variants using a Biacore T200 instrument (GE Healthcare). Target proteins C4, IL-6 and insulin, respectively, were immobilized in separate flow cells on the carboxylated dextran layer of different CM5 chip surfaces (GE Healthcare). Immobilization was performed using amine coupling chemistry according to the manufacturer's protocol and PBS pH 7.4 supplemented with 0.1 Tween20 (PBST 0.1%) as running buffer. The ligand immobilization levels on the surfaces were 3280-8830 RU for C4, 495-1184 RU for IL-6, and 270-282 RU for insulin. One flow cell surface on each chip was activated and deactivated for use as blank during analyte injections. In the kinetic experiment, PBST 0.1% was used as running buffer at a flow rate of 30 μl/min. The analytes, i.e. Y variants, were each diluted in PBST 0.1 buffer at concentrations of 1000, 500, 100, 50 and 10 nM and injected for 5 min, followed by dissociation in running buffer for 3 min. After dissociation, the surfaces were regenerated with one injection of 30 μl 10 mM HCl. Kinetic constants were calculated from the sensorgrams using the Langmuir 1:1 model of Biacore T200 Evaluation software 2.0 (GE Healthcare).
(§1) Produced Y variants were subjected to CD and SPR analyses according to the methods described in Example 1.
(§2) The Y variants were cloned, produced and characterized according to the general methods described in Example 1. Produced Y variants with point mutations and/or N-terminal or C-terminal extensions were subjected to CD and SPR analyses as described in Example 1.
(§3) Produced Y variants were subjected to CD and SPR analyses according to the methods described in Example 1. In addition, CD spectra of selected IL-6 binding variants were also recorded at 60, 70, 80 and 90° C.
(§4) The Y variants were cloned, produced and characterized according to the general methods described in Example 1. Produced Y variants with point mutations were subjected to CD and SPR analyses as described in Example 1. In addition, CD spectra of the IL-6 binding variants were also recorded at 60, 70, 80 and 90° C.

Data set [1] can be described thus: Circular dichroism spectroscopy analysis (CD spectra, variable temperature measurement, refolding). It is filed as physicochemical. The protocol:
The respective Y variant was diluted to 0.5 mg/ml in PBS. A CD spectrum at 250-195 nm was obtained at 20° C. In addition, a variable temperature measurement (VTM) was performed to determine the melting temperature (Tm). In the VTM, absorbance was measured at 221 nm while the temperature was raised from 20° C. to 90° C. with a temperature gradient of 5° C./min. A new CD spectrum was obtained at 20° C. after the heating procedure, in order to study the refolding ability of the Y variants. The CD measurements were performed on a Jasco J-810 spectropolarimeter (Jasco Scandinavia AB) using a cell with an optical path length of 1 mm.
as §1, §2, §3, §4
A general note: CD spectra are sensitive to the conformation of chiral molecules.

Data set [2] can be described thus: Fraction of soluble product on expression in E. coli, estimated from SDS-PAGE. Type of data set: physicochemical. The following applies: for Est soluble fraction: Table 9, mutation study 5. As to the method:
E. coli T7E2 cells were transformed with plasmids containing the gene fragment of each respective Y variant. The resulting recombinant strains were generally cultivated in media supplemented with 50 μg/ml kanamycin at 30-37° C. in 50 ml scale using the EnPresso protocol (Enpresso GmbH). In order to induce protein expression, isopropyl-β-D-1-thiogalactopyranoside (IPTG) was added to a final concentration of 0.5 mM at an optical density at 600 nm (OD600) of approximately 10. After induction, the cultures were incubated for 16 h. The cells were harvested by centrifugation. Alternatively, the culture was performed at 37° C. in 980 ml of TSB-YE medium (tryptic soy broth 30 g/l supplemented with yeast extract 5 g/l) supplemented with 50 μg/ml kanamycin, and protein expression induced with 0.2 mM IPTG at OD600=2, followed by incubation for 5 h before harvesting of the cells by centrifugation. The total yield as well as the fraction of soluble and insoluble product of the respective Y variant was estimated based on SDS-PAGE analysis.

Where [3] appears, read: Table 7, MGSSHHHHHHGSS-[Y#####]-A.
Setting [4] is: Table 7, Ylib002Naive.I selection, MGSSHHHHHHGSS-[Y#####]-A.
Where [5] appears, read: Table 8, mutation study 4, MGSSHHHHHHGSS-[Y#####].
Where [6] appears, read: Table 9, mutation study 5, MGSSHHHHHHGSS-[Y#####]-A.

T1 sequence (P01308 25-54 limits assumed): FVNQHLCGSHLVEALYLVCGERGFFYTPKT
T1 sequence (P01308 90-110 limits assumed): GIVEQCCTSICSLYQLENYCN

In the case of “Y00299: insulin binding Y variant from Ylib002Naive.I, SEQ ID NO:132 (LAEAKEAAIAELDSKGVGAYQIKFIQVAKTVEQVQILKQAILADLPA; Engineered insulin binding Y variant)”, in the data set with insulin, binding was characterised by a dissociation constant (Kd) of 6.5 nM, the ka was determined as 310000 M⁻¹ s⁻¹ and the kd turned out to be 0.002 s⁻¹. For the same substance, in data set [1] (setting [3]), the Tm came to 56 °C. For the same substance, the Estimated soluble fraction in data set [2] (setting [4]) was 75%.
Regarding “Y00301: insulin binding Y variant from Ylib002Naive.I, SEQ ID NO:133 (LAEAKEAAIAELDSKGVGARQIKWIQQAKSVEVVQWLKQAILADLPA; Engineered insulin binding Y variant)”, in the data set with insulin, binding was put at a Kd of 0.94 nM, the ka stood at 2.9e+07 M⁻¹ s⁻¹ and the kd was 0.056 s⁻¹. Also, the Tm in data set [1] (setting [3]) came out at 62 °C. Also, in data set [2] (setting [4]), the Estimated soluble fraction is reported as 83%.
With “Y00304: insulin binding Y variant from Ylib002Naive.I, SEQ ID NO:134 (LAEAKEAAIAELDSKGVGAYQIKFIQVAHDVEEVQILKQAILADLPA; Engineered insulin binding Y variant)”, in the data set with insulin, the Kd (in general, a measure of binding affinity in units of concentration) stood at 21 nM; the ka worked out at 85000 M⁻¹ s⁻¹; the kd is 0.0011 s⁻¹. Further, the Tm in data set [1] (setting [3]) came out at 41 °C. In addition, the Estimated soluble fraction in data set [2] (setting [4]) is listed as 33%.
For “Y00310: insulin binding Y variant from Ylib002Naive.I, SEQ ID NO:135 (LAEAKEAAIAELDSKGVGAYQIKFIQIAHTVEEVQLMKQAILADLPA; Engineered insulin binding Y variant)” the same measures were 37 nM, 170000 M⁻¹ s⁻¹, 0.0063 s⁻¹, 54 °C and 86%.
For the substance “Y00330: insulin binding Y variant from Ylib002Naive.I, SEQ ID NO:136 (LAEAKEAAIAELDSKGVGAKYIKMIQMAKHVETVQYMKQAILASLPA; Engineered insulin binding Y variant)”, in the data set with insulin, the Kd was 120 nM, the ka stood at 30000 M⁻¹ s⁻¹ and the kd amounted to 0.0037 s⁻¹. Also, the Tm in data set [1] (setting [3]) worked out at 56 °C. Also, the Estimated soluble fraction in data set [2] (setting [4]) is recorded as 67%.
On to “Y00345: insulin binding Y variant from Ylib002Naive.I, SEQ ID NO:138 (LAEAKEAAIAELDSKGVGAYQIKFIQVAKTVEAVQAIKQAILADLPA; Engineered insulin binding Y variant)”, for which, in the data set with insulin, binding was put at a Kd of 61 nM, the ka came out at 290000 M⁻¹ s⁻¹ and the kd was determined as 0.017 s⁻¹. For the same substance, in data set [1] (setting [3]), the Tm is 53 °C. The Estimated soluble fraction in data set [2] (setting [4]) was 80%.
Take “Y00356: insulin binding Y variant, SEQ ID NO:140, template of mutation study 4 (LAEAKEAAIAELDSKGVGAKYIKMIQHAHYVEVVQWLKQAILAHLP; Engineered insulin binding Y variant)”: in data set [1] (setting [5]), the Tm was found to be 57 °C. Also, the Estimated soluble fraction in data set [2] (setting [5]) is on record as 43%.
Take “Y02310: C4 binding Y variant from Ylib002Naive.I, SEQ ID NO:36 (LAEAKEAAIAELDSKGVGADLIKKIQYADTVEGVQFWKQEILAWLPA; Engineered C4 binding Y variant)”: the Tm in data set [1] (setting [3]) is 56 °C. In addition, the Estimated soluble fraction in data set [2] (setting [4]) is 100%.
For “Y02674: insulin binding Y variant, Y00356 with K15Y, SEQ ID NO:146 (LAEAKEAAIAELDSYGVGAKYIKMIQHAHYVEVVQWLKQAILAHLP; Engineered insulin binding Y variant)”, the Tm in data set [1] (setting [5]) is 55 °C. Also, in data set [2] (setting [5]), the Estimated soluble fraction is on record as 40%.
On to “Y02676: insulin binding Y variant, Y00356 with Q26E, SEQ ID NO:147 (LAEAKEAAIAELDSKGVGAKYIKMIEHAHYVEVVQWLKQAILAHLP; Engineered insulin binding Y variant)”, for which the Tm in data set [1] (setting [5]) was found to be 56 °C. In data set [2] (setting [5]), the Estimated soluble fraction is given as 55%.
With “Y02683: insulin binding Y variant, Y00356 with I9L, SEQ ID NO:148 (LAEAKEAALAELDSKGVGAKYIKMIQHAHYVEVVQWLKQAILAHLP; Engineered insulin binding Y variant)”, the Estimated soluble fraction in data set [2] (setting [5]) was 92%.
As to “Y02685: C4 binding Y variant, Y00792 with I9L, SEQ ID NO:40 (LAEAKEAALAELDSKGVGADLIKKIQQASSVEGVQFWKQEILAQLPA; Engineered C4 binding Y variant)”, in data set [1] (setting [6]), the Tm stood at 53 °C. Besides, the Est soluble fraction in data set [2] (MGSSHHHHHHGSS-[Y#####]-A) is 100%.
On to “Y02686: C4 binding Y variant, Y00792 with K15Y, SEQ ID NO:41 (LAEAKEAAIAELDSYGVGADLIKKIQQASSVEGVQFWKQEILAQLPA; Engineered C4 binding Y variant)”, for which the Tm in data set [1] (setting [6]) worked out at 59 °C. In addition, the Est soluble fraction in data set [2] (MGSSHHHHHHGSS-[Y#####]-A) is reported as 100%.
With “Y02687: C4 binding Y variant, Y00792 with Q26E, SEQ ID NO:42 (LAEAKEAAIAELDSKGVGADLIKKIEQASSVEGVQFWKQEILAQLPA; Engineered C4 binding Y variant)”, the Tm in data set [1] (setting [6]) is 57 °C. The Est soluble fraction in data set [2] (MGSSHHHHHHGSS-[Y#####]-A) is on record as 100%.
For “Y02688: C4 binding Y variant, Y02330 with I9L, SEQ ID NO:43 (LAEAKEAALAELDSKGVGAELIKKIQHAESVEGVQFWKQEILAYLPA; Engineered C4 binding Y variant)” the same measures were 50 °C and 100%.
With “Y02689: C4 binding Y variant, Y02330 with K15Y, SEQ ID NO:44 (LAEAKEAAIAELDSYGVGAELIKKIQHAESVEGVQFWKQEILAYLPA; Engineered C4 binding Y variant)”, in data set [1] (setting [6]), the Tm worked out at 53 °C. For the same substance, the Est soluble fraction in data set [2] (MGSSHHHHHHGSS-[Y#####]-A) is 100%.
For “Y02690: C4 binding Y variant, Y02330 with Q26E, SEQ ID NO:45 (LAEAKEAAIAELDSKGVGAELIKKIEHAESVEGVQFWKQEILAYLPA; Engineered C4 binding Y variant)” the same measures were 53 °C and 100%.
With “Y02691: C4 binding Y variant, Y00792 with K15Y Q26E, SEQ ID NO:46 (LAEAKEAAIAELDSYGVGADLIKKIEQASSVEGVQFWKQEILAQLPA; Engineered C4 binding Y variant)”, in data set [1] (setting [6]), the Tm was 58 °C. For the same substance, the Est soluble fraction in data set [2] (MGSSHHHHHHGSS-[Y#####]-A) is reported as 100%.
As for “Y02692: C4 binding Y variant, Y02309 with K15Y Q26E, SEQ ID NO:47 (LAEAKEAAIAELDSYGVGADLIKKIEKAESVEGVQFWKQEILATLPA; Engineered C4 binding Y variant)”, the Tm in data set [1] (setting [6]) turned out to be 57 °C. Moreover, the Est soluble fraction in data set [2] (MGSSHHHHHHGSS-[Y#####]-A) is 100%.
In the case of “Y02693: C4 binding Y variant, Y02330 with K15Y Q26E, SEQ ID NO:48 (LAEAKEAAIAELDSYGVGAELIKKIEHAESVEGVQFWKQEILAYLPA; Engineered C4 binding Y variant)”, the Tm in data set [1] (setting [6]) came out at 52 °C. Moreover, the Est soluble fraction in data set [2] (MGSSHHHHHHGSS-[Y#####]-A) is on record as 100%.
